From patent US20250195657A1 (NEOMICS PHARMACEUTICALS, published 2025)

Biological target: T1, B cell maturation antigen (BCMA) (UniProt Q02223 1-54, limits assumed)
T1 construct: also called CD269; TNFRSF17
T1 sequence (looked up): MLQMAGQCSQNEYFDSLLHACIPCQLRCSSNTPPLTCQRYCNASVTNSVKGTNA
Assay: not stated (no method given)

B1: BCMA nanobody (BCMA binding domain of NPB5005) (VHH)
VHH: EVQLQASGGGLAQPGGSLRLSCAASGRTFSTYFMAWFRQPPGKGLEYVGGIRWSDGVPHYADSVKGRFTISRDNAKNTVYLQMNSLRAEDTAVYFCASRGIADGSDFGSYGQGTQVTVSS
A Kd of 1 nM was found for B1 in this work.
